Key:
Experiment in all cases: SPR (BIAcore J), PfuPCNA immobilised on CM5 chip, polymerase variant as analyte, 25° C.
Taq84 (PIP-L35-Taq) = target: T1, Taq84 (PIP-L35-Taq) (Thermus aquaticus, UniProt P19821 1-832)
T1 construct: N-terminal PfuRFCL PIP box, 35-residue Ser/Gly linker, Taq DNA polymerase; also called DNA polymerase variant Taq84
Description: (§1) In the surface plasmon resonance (SPR) analysis, BIAcore J (manufactured by BIACORE) was used. A PCNA from Pyrococcus furiosus (J. Bacteriology, 181, 6591-6599, 1999: hereinafter referred to as PfuPCNA) was immobilized on a CM5 sensor chip (manufactured by GE Healthcare) by amine coupling, and the measurement was carried out under the conditions of 25° C., a flow rate of 30 μL/minutes, and a solution E (10 mM Tris-HCl, 50 mM KCl, 1.5 mM MgCl₂, pH 8.3). A sample solution of Taq81 to Taq85 diluted to 10, 20, 40, 80, 160, or 320 nM or a sample solution of Taq94 diluted to 125 nM, 250 nM, 500 nM, 1 μM, or 2 μM was each added for 2 minutes. The sensorgrams obtained were analyzed by BIA evaluation program, and the dissociation constants (Kd) between Taq81 to Taq85 and PfuPCNA and between Taq94 and PfuPCNA were calculated.
(§2) The dissociation constants (Kd) with respect to the bindings between five kinds of Taq DNA polymerases to which PIP box was added at an N-terminal, each having a different length of a linker peptide (Taq81, Taq82, Taq83, Taq84, and Taq85), and PfuPCNA were calculated. As a result, the values were 7.1×10⁻⁷ M, 4.4×10⁻⁷ M, 2.4×10⁻⁷ M, 2.5×10⁻⁷ M, and 2.0×10⁻⁷ M, which were nearly of the same level regardless of the lengths of the linker peptides.

Taq82 (PIP-L10-Taq) = target: T2, Taq82 (PIP-L10-Taq) (Thermus aquaticus, UniProt P19821 1-832)
T2 construct: N-terminal PfuRFCL PIP box, 10-residue Ser/Gly linker, Taq DNA polymerase; also called DNA polymerase variant Taq82
Description: as §1, §2

Taq94 (Taq-L15-PIP) = target: T3, Taq94 (Taq-L15-PIP) (Thermus aquaticus, UniProt P19821 1-832)
T3 construct: Taq DNA polymerase, 15-residue Ser/Gly linker, PfuRFCL PIP box at the C-terminus; also called DNA polymerase variant Taq94
Description: as §1, §2

Taq83 (PIP-L15-Taq) = target: T4, Taq83 (PIP-L15-Taq) (Thermus aquaticus, UniProt P19821 1-832)
T4 construct: N-terminal PfuRFCL PIP box, 15-residue Ser/Gly linker, Taq DNA polymerase; also called DNA polymerase variant Taq83
Description: as §1, §2

Taq85 (PIP-L47-Taq) = target: T5, Taq85 (PIP-L47-Taq) (Thermus aquaticus, UniProt P19821 1-832)
T5 construct: N-terminal PfuRFCL PIP box, 47-residue Ser/Gly linker, Taq DNA polymerase; also called DNA polymerase variant Taq85
Description: as §1, §2

Taq81 (PIP-L5-Taq) = target: T6, Taq81 (PIP-L5-Taq) (Thermus aquaticus, UniProt P19821 1-832)
T6 construct: expressed in E. coli and purified; also called DNA polymerase variant Taq81
Description: as §1, §2

T2 sequence (P19821 other isoform, or with tags, fused parts or gaps): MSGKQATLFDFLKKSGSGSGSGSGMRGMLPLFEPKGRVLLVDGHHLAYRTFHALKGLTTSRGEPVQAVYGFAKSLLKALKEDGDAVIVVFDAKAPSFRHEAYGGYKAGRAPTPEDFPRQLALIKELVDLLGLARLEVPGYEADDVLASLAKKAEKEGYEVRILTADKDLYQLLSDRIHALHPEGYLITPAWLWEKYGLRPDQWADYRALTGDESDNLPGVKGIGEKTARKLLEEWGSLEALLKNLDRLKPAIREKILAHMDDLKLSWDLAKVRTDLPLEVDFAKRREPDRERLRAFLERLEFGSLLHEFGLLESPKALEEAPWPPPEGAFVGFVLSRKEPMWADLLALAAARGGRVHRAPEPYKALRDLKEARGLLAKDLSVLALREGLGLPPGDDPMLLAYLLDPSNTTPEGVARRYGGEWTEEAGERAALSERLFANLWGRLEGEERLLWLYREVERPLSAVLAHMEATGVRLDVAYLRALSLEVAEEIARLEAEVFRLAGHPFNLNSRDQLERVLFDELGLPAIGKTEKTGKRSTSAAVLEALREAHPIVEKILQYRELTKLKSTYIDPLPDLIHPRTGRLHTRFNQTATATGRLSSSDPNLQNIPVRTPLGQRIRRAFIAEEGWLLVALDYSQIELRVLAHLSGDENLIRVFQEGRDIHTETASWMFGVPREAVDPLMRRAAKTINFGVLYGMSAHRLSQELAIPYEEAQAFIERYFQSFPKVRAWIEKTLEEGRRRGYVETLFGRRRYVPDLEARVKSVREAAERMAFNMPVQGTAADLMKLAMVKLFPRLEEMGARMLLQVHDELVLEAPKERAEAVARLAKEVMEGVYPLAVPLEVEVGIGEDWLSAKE
T3 sequence (P19821 other isoform, or with tags, fused parts or gaps): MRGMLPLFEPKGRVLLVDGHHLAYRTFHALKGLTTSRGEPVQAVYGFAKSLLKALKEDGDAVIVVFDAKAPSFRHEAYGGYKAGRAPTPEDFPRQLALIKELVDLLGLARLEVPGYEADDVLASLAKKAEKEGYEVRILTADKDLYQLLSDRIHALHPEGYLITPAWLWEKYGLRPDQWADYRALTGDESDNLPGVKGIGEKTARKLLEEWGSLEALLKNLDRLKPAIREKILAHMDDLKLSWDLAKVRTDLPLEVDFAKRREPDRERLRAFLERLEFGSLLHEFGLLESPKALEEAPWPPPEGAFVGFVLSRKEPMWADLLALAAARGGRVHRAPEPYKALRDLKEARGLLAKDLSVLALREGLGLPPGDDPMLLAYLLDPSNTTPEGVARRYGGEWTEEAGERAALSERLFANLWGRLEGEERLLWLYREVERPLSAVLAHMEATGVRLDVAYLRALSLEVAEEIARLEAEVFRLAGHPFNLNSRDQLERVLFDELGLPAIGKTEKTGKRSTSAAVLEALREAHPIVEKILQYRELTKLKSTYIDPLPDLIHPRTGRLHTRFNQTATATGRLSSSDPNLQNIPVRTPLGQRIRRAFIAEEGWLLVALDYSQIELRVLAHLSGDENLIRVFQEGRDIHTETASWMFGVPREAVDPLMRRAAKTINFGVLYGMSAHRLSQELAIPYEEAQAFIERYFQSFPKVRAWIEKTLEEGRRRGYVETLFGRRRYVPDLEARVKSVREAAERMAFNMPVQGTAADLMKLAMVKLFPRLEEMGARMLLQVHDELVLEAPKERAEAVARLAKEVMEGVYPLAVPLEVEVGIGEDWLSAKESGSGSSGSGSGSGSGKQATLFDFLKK
T6 sequence (P19821 other isoform, or with tags, fused parts or gaps): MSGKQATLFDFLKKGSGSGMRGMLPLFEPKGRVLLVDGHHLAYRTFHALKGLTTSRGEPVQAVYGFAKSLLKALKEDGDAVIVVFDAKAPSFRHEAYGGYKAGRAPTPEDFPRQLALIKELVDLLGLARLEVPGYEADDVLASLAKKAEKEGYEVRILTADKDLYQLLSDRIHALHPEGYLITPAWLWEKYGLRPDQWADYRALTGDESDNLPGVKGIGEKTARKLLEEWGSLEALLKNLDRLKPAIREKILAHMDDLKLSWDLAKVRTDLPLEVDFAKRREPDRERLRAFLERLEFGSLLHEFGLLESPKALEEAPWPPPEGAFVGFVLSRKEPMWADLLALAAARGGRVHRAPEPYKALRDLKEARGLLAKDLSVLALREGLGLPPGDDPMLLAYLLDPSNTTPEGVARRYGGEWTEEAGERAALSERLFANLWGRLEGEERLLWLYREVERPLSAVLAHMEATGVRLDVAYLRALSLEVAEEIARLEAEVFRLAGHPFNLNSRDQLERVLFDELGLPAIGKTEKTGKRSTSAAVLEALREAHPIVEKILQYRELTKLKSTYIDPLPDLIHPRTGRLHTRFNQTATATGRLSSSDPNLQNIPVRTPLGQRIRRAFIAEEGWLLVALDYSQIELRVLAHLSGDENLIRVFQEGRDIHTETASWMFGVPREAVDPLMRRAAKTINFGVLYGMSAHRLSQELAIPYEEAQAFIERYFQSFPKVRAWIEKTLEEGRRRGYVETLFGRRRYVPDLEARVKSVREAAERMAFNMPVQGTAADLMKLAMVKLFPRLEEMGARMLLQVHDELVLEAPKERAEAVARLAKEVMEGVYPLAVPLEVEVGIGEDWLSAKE
T5 sequence (P19821 other isoform, or with tags, fused parts or gaps): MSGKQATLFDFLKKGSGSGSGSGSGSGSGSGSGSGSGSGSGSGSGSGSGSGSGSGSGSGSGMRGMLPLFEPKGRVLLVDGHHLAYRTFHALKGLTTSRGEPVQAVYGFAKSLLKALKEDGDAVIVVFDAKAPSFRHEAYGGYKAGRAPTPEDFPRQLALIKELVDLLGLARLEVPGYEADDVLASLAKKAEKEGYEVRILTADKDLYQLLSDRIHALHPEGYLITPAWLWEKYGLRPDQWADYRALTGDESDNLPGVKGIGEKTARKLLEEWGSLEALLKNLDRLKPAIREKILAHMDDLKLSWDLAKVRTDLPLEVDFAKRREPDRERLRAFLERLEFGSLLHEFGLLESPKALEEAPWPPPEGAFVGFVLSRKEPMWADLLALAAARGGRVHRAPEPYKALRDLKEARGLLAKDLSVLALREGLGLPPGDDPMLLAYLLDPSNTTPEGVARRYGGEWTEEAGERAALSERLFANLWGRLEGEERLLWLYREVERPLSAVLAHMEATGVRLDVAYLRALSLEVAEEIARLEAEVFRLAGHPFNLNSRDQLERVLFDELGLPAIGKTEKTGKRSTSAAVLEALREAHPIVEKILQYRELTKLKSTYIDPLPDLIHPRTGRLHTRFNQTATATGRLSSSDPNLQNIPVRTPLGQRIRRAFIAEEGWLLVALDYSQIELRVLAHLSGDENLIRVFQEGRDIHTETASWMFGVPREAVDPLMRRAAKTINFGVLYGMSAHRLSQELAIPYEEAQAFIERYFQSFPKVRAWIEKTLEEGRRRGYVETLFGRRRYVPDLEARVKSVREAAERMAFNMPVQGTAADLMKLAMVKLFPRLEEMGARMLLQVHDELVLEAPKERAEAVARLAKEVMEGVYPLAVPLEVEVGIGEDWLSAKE
T4 sequence (P19821 other isoform, or with tags, fused parts or gaps): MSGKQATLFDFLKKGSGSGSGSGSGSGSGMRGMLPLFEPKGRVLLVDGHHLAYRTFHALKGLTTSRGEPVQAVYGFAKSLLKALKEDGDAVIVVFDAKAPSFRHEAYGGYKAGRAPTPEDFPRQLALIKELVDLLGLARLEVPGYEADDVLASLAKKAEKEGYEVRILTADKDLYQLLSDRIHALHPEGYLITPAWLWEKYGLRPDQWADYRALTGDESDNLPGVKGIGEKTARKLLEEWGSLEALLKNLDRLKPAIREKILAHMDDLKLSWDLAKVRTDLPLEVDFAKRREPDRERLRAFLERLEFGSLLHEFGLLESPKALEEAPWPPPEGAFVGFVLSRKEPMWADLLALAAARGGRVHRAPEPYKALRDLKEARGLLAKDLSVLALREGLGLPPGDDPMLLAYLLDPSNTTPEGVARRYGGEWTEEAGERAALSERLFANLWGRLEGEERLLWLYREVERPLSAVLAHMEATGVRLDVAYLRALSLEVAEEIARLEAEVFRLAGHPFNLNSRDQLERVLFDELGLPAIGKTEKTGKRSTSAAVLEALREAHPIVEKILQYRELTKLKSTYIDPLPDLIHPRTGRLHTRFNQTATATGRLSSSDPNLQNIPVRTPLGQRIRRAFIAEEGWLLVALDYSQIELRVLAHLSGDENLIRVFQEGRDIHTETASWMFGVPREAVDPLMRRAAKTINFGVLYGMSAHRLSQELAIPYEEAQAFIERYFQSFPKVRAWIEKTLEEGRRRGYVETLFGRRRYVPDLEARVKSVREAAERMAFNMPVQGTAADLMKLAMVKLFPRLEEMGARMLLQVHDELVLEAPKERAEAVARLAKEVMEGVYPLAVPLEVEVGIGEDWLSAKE

Kd (Taq84 (PIP-L35-Taq)): 250 nM
Kd (Taq82 (PIP-L10-Taq)): 440 nM
Kd (Taq94 (Taq-L15-PIP)): 2500 nM
Kd (Taq83 (PIP-L15-Taq)): 240 nM
Kd (Taq85 (PIP-L47-Taq)): 200 nM
Kd (Taq81 (PIP-L5-Taq)): 710 nM
B1: PCNA from Pyrococcus furiosus (other, UniProt O73947 1-249, looked up)
chain: MPFEIVFEGAKEFAQLIDTASKLIDEAAFKVTEDGISMRAMDPSRVVLIDLNLPSSIFSKYEVVEPETIGVNMDHLKKILKRGKAKDTLILKKGEENFLEITIQGTATRTFRVPLIDVEEMEVDLPELPFTAKVVVLGEVLKDAVKDASLVSDSIKFIARENEFIMKAEGETQEVEIKLTLEDEGLLDIEVQEETKSAYGVSYLSDMVKGLGKADEVTIKFGNEMPMQMEYYIRDEGRLTFLLAPRVEE
notes: Wild-type PfuPCNA immobilised on a CM5 chip by amine coupling; also called PfuPCNA

Reference: patent US20190055527A1 (KYUSHU UNIVERSITY NATIONAL UNIVERSITY, published 2019)
